According to the supplement of paper PMC9112550, “Optimization of the antimicrobial peptide Bac7 by deep mutational scanning” (BMC Biology, 2022):

Tested on: Escherichia coli TOP10
Test: shrunken log2 fold change of peptide-encoding DNA abundance (4.5 h post-induction vs induction); higher = less antimicrobial activity (less host growth inhibition)
Details: time post-induction: 4.5 h; library: site-saturation at positions 5, 18, 19, 20
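Note: peptides expressed intracellularly from a pBAD plasmid library in pooled LB shake-flask culture, induced with 0.3% L-arabinose, DNA abundance read by NGS, three biological replicates, DESeq2 with apeglm shrinkage.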

| Sequence | shrunken log2 fold change |
| --- | --- |
| RRIRVRPPRLPRPRPRPNYKPRP | -0.509 |
| RRIRIRPPRLPRPRPRPICFPRP | -0.152 |
| RRIRTRPPRLPRPRPRPMKMPRP | 0.0821 |
| RRIRFRPPRLPRPRPRPHIPPRP | -0.289 |
| RRIRIRPPRLPRPRPRPMRGPRP | 1.32 |
| RRIRNRPPRLPRPRPRPIQAPRP | -0.0922 |
| RRIRDRPPRLPRPRPRPTNWPRP | 0.111 |
| RRIRRRPPRLPRPRPRPTFIPRP | -0.0768 |
| RRIRLRPPRLPRPRPRPKNEPRP | -0.198 |
| RRIRFRPPRLPRPRPRPEKYPRP | -0.397 |
| RRIRDRPPRLPRPRPRPWIVPRP | 0.0145 |
| RRIRMRPPRLPRPRPRPESSPRP | 0.135 |
| RRIRRRPPRLPRPRPRPQRDPRP | 0.179 |
| RRIRNRPPRLPRPRPRPGHSPRP | -0.152 |
| RRIRDRPPRLPRPRPRPRSQPRP | 0.137 |
| RRIRWRPPRLPRPRPRPRHKPRP | -0.0379 |
| RRIRWRPPRLPRPRPRPVHWPRP | 0.138 |
| RRIRMRPPRLPRPRPRPLCPPRP | -0.0953 |
| RRIRFRPPRLPRPRPRPMDIPRP | -0.0635 |
| RRIRLRPPRLPRPRPRPSMHPRP | -0.489 |
| RRIRTRPPRLPRPRPRPHAWPRP | 3.26 |
| RRIRDRPPRLPRPRPRPTDSPRP | -0.0622 |
| RRIRSRPPRLPRPRPRPDKTPRP | 0.178 |
| RRIRARPPRLPRPRPRPYYHPRP | -1.02 |
| RRIRKRPPRLPRPRPRPDVGPRP | 0.0262 |

| Sequence | shrunken log2 fold change |
| --- | --- |
| RRIRCRPPRLPRPRPRPQENPRP | -0.0731 |
| RRIRRRPPRLPRPRPRPMSAPRP | 0.128 |
| RRIRMRPPRLPRPRPRPPMCPRP | 0.293 |
| RRIRGRPPRLPRPRPRPGELPRP | 0.61 |
| RRIRVRPPRLPRPRPRPSMDPRP | 2.34 |
| RRIRKRPPRLPRPRPRPHRWPRP | 0.00588 |
| RRIRFRPPRLPRPRPRPWFKPRP | -0.537 |
| RRIRCRPPRLPRPRPRPSYKPRP | -0.572 |
| RRIRSRPPRLPRPRPRPHQPPRP | -0.00655 |
| RRIRVRPPRLPRPRPRPSLWPRP | 0.183 |
| RRIRHRPPRLPRPRPRPIEEPRP | -0.127 |
| RRIRNRPPRLPRPRPRPMIQPRP | -0.715 |
| RRIRMRPPRLPRPRPRPKGTPRP | 1.69 |
| RRIRERPPRLPRPRPRPFMHPRP | -0.121 |
| RRIRRRPPRLPRPRPRPWAQPRP | 0.882 |
| RRIRSRPPRLPRPRPRPVRRPRP | 0.558 |
| RRIRQRPPRLPRPRPRPNSFPRP | 0.151 |
| RRIRDRPPRLPRPRPRPGVVPRP | 0.708 |
| RRIRRRPPRLPRPRPRPRRGPRP | 0.788 |
| RRIRTRPPRLPRPRPRPPYMPRP | -0.302 |
| RRIRPRPPRLPRPRPRPNQFPRP | -0.204 |
| RRIRRRPPRLPRPRPRPHAHPRP | -0.00194 |
| RRIRWRPPRLPRPRPRPSLPPRP | -0.133 |
| RRIRIRPPRLPRPRPRPCFMPRP | -0.378 |
| RRIRKRPPRLPRPRPRPLSNPRP | 0.436 |

| Sequence | shrunken log2 fold change |
| --- | --- |
| RRIRDRPPRLPRPRPRPLEGPRP | 0.0257 |
| RRIRGRPPRLPRPRPRPMYTPRP | 0.876 |
| RRIRGRPPRLPRPRPRPGIRPRP | 0.208 |
| RRIRVRPPRLPRPRPRPHVLPRP | -0.067 |
| RRIRVRPPRLPRPRPRPICKPRP | -0.149 |
| RRIRKRPPRLPRPRPRPFAEPRP | 0.266 |
| RRIRRRPPRLPRPRPRPPMMPRP | 0.21 |
| RRIRFRPPRLPRPRPRPFMIPRP | -0.456 |
| RRIRMRPPRLPRPRPRPMFLPRP | -0.273 |
| RRIRPRPPRLPRPRPRPACWPRP | 0.671 |
| RRIRCRPPRLPRPRPRPWVIPRP | -0.11 |
| RRIRDRPPRLPRPRPRPAWAPRP | 0.713 |
| RRIRKRPPRLPRPRPRPIHPPRP | 0.0728 |
| RRIRGRPPRLPRPRPRPGECPRP | 0.959 |
| RRIRERPPRLPRPRPRPQMVPRP | -0.0708 |
| RRIRSRPPRLPRPRPRPNDVPRP | -0.134 |
| RRIRCRPPRLPRPRPRPCSAPRP | -0.277 |
| RRIRNRPPRLPRPRPRPDEDPRP | 0.421 |
| RRIRCRPPRLPRPRPRPLPWPRP | 0.195 |
| RRIRCRPPRLPRPRPRPDCCPRP | -0.206 |
| RRIRWRPPRLPRPRPRPHDYPRP | 0.0166 |
| RRIRVRPPRLPRPRPRPAFGPRP | 0.18 |
| RRIRQRPPRLPRPRPRPLIIPRP | -0.781 |
| RRIRLRPPRLPRPRPRPQQIPRP | -0.878 |
| RRIRVRPPRLPRPRPRPKANPRP | 0.103 |

| Sequence | shrunken log2 fold change |
| --- | --- |
| RRIRQRPPRLPRPRPRPDLRPRP | -0.0102 |
| RRIRLRPPRLPRPRPRPTWAPRP | 0.17 |
| RRIRCRPPRLPRPRPRPPDGPRP | -0.0323 |
| RRIRRRPPRLPRPRPRPINFPRP | -0.0729 |
| RRIRWRPPRLPRPRPRPAHMPRP | 0.0152 |
| RRIRDRPPRLPRPRPRPDSEPRP | -0.0121 |
| RRIRIRPPRLPRPRPRPFYDPRP | -0.202 |
| RRIRDRPPRLPRPRPRPSPQPRP | 0.204 |
| RRIRGRPPRLPRPRPRPHIVPRP | 0.106 |
| RRIRARPPRLPRPRPRPILFPRP | -0.166 |
| RRIRPRPPRLPRPRPRPTTWPRP | 0.176 |
| RRIRSRPPRLPRPRPRPISFPRP | -0.216 |
| RRIRERPPRLPRPRPRPSDDPRP | -0.0902 |
| RRIRKRPPRLPRPRPRPWILPRP | -0.14 |
| RRIRRRPPRLPRPRPRPFGAPRP | 0.153 |
| RRIRCRPPRLPRPRPRPQFIPRP | -0.866 |
| RRIRGRPPRLPRPRPRPVWAPRP | 0.591 |
| RRIRERPPRLPRPRPRPNEDPRP | -0.151 |
| RRIRGRPPRLPRPRPRPEIVPRP | 0.0103 |
| RRIRNRPPRLPRPRPRPHDDPRP | 0.008 |
| RRIRSRPPRLPRPRPRPAFCPRP | 0.259 |
| RRIRIRPPRLPRPRPRPVSNPRP | -0.0661 |
| RRIRIRPPRLPRPRPRPYFKPRP | -0.511 |
| RRIRYRPPRLPRPRPRPRDVPRP | -0.0023 |
| RRIRMRPPRLPRPRPRPRWAPRP | 1.3 |

| Sequence | shrunken log2 fold change |
| --- | --- |
| RRIRPRPPRLPRPRPRPRPTPRP | 0.869 |
| RRIRFRPPRLPRPRPRPEAAPRP | 0.965 |
| RRIRVRPPRLPRPRPRPQWIPRP | -0.895 |
| RRIRMRPPRLPRPRPRPFIAPRP | -0.251 |
| RRIRERPPRLPRPRPRPINEPRP | -0.281 |
| RRIRTRPPRLPRPRPRPEPGPRP | 0.0826 |
| RRIRYRPPRLPRPRPRPNNLPRP | -0.582 |
| RRIRKRPPRLPRPRPRPFYVPRP | -0.0997 |
| RRIRYRPPRLPRPRPRPEWNPRP | -0.861 |
| RRIRRRPPRLPRPRPRPICNPRP | -0.12 |
| RRIRCRPPRLPRPRPRPHQTPRP | -0.0284 |
| RRIRSRPPRLPRPRPRPAEYPRP | -0.0544 |
| RRIRWRPPRLPRPRPRPAHKPRP | 0.344 |
| RRIRGRPPRLPRPRPRPARCPRP | 0.749 |
| RRIRKRPPRLPRPRPRPTQMPRP | 0.8 |
| RRIRVRPPRLPRPRPRPPHHPRP | 0.0413 |
| RRIRFRPPRLPRPRPRPWQWPRP | 0.00967 |
| RRIRCRPPRLPRPRPRPINFPRP | -0.235 |
| RRIRFRPPRLPRPRPRPQEMPRP | 0.126 |
| RRIRVRPPRLPRPRPRPRPVPRP | 0.515 |
| RRIRKRPPRLPRPRPRPYRWPRP | -0.164 |
| RRIRFRPPRLPRPRPRPTWVPRP | 0.156 |
| RRIRFRPPRLPRPRPRPLRIPRP | 0.00235 |
| RRIRSRPPRLPRPRPRPNRVPRP | -0.048 |
| RRIRCRPPRLPRPRPRPSGGPRP | -0.0862 |

| Sequence | shrunken log2 fold change |
| --- | --- |
| RRIRMRPPRLPRPRPRPHAEPRP | 2.8 |
| RRIRERPPRLPRPRPRPGMDPRP | -0.696 |
| RRIRQRPPRLPRPRPRPYNAPRP | -0.0247 |
| RRIRGRPPRLPRPRPRPTTKPRP | 1 |
| RRIRQRPPRLPRPRPRPEVPPRP | -0.00133 |
| RRIRERPPRLPRPRPRPDLPPRP | -0.156 |
| RRIRLRPPRLPRPRPRPRMEPRP | 0.123 |
| RRIRWRPPRLPRPRPRPNFDPRP | -0.0228 |
| RRIRTRPPRLPRPRPRPECWPRP | 0.53 |
| RRIRGRPPRLPRPRPRPTPNPRP | 0.957 |
| RRIRKRPPRLPRPRPRPRTPPRP | 0.714 |
| RRIRGRPPRLPRPRPRPCIWPRP | 0.208 |
| RRIRSRPPRLPRPRPRPAEHPRP | 0.0851 |
| RRIRYRPPRLPRPRPRPMKIPRP | -0.0574 |
| RRIRYRPPRLPRPRPRPFGWPRP | 0.102 |
| RRIRGRPPRLPRPRPRPDVIPRP | 0.68 |
| RRIRGRPPRLPRPRPRPSMPPRP | 0.0931 |
| RRIRGRPPRLPRPRPRPWIFPRP | 0.224 |
| RRIRARPPRLPRPRPRPEIGPRP | 0.675 |
| RRIRRRPPRLPRPRPRPITCPRP | -0.307 |
| RRIRNRPPRLPRPRPRPCSWPRP | -0.117 |
| RRIRMRPPRLPRPRPRPWYFPRP | -0.282 |
| RRIRCRPPRLPRPRPRPQVRPRP | -0.236 |
| RRIRWRPPRLPRPRPRPFMPPRP | -0.714 |
| RRIRIRPPRLPRPRPRPNNLPRP | -0.69 |
